What all share (experiment): ELISA, coated CCN protein
In general terms: ELISA stands for enzyme-linked immunosorbent assay.

One test concerns the target T1, huCYR61 (human, UniProt O00622 25-381, limits assumed).
T1 construct: also called human CYR61 (CCN1)
T1 sequence (looked up): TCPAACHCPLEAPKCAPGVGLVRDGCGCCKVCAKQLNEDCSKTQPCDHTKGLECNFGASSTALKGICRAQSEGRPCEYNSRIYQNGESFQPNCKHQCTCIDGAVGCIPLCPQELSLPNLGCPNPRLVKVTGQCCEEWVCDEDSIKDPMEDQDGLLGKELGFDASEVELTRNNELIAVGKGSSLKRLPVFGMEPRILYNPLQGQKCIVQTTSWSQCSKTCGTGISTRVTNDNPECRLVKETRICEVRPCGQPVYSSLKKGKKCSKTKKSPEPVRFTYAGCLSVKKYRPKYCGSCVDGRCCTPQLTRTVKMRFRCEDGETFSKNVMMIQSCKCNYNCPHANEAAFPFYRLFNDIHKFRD
As for the experimental part: (§1) Binding of muteins to closely related proteins of CTGF was tested by an ELISA assay. In detail, a 384-well plate suitable for fluorescence measurements (Greiner FLUOTRAC™ 600, black flat bottom, high-binding) was coated with 20 μl of human CTGF or the other members of the CCN protein family at a concentration of 1 μg/ml in PBS over night at 4° C. After washing with PBS with 0.05% Tween 20, wells were blocked with 100 μl blocking buffer containing 0.1% Tween 20 and 2% BSA (PBS-T/BSA) for 1 h at room temperature. 20 μl of serially diluted muteins starting at 1000 nM were incubated in PBS-T/BSA for 1 h at room temperature (RT).
(§2) The residual supernatants were discarded and 20 μl HRP-labeled anti-NGAL or anti-Strep-Tag antibody was added at a predetermined optimal concentration in PBS-T/BSA and incubated for 1 h at RT. After washing, 20 μl fluorogenic HRP substrate (QuantaBlu, Thermo) was added to each well, and the reaction was allowed to proceed for 2 to 60 minutes. The fluorescence intensity of every well on the plate was read using a fluorescence microplate reader (Tecan). When the signal for human CTGF approached saturation, the cross reactivity to the other proteins was assessed.

In a further test the target is T2, huNOV (human, UniProt P48745 32-357, limits assumed).
T2 construct: also called human NOV (CCN3)
T2 sequence (looked up): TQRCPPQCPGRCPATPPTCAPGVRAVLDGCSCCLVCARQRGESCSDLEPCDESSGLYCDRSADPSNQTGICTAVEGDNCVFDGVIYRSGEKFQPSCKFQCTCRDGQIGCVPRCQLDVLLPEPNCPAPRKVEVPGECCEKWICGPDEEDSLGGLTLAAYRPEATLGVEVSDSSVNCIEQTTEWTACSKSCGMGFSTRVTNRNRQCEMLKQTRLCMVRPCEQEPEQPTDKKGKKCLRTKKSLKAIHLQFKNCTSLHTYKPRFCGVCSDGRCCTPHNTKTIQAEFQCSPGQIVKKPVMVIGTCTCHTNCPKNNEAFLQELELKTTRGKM
The protocol: as §1, §2

A further test deals with T3, huWISP-1 (human, UniProt O95388 23-367, limits assumed).
T3 construct: also called human WISP-1 (CCN4)
T3 sequence (looked up): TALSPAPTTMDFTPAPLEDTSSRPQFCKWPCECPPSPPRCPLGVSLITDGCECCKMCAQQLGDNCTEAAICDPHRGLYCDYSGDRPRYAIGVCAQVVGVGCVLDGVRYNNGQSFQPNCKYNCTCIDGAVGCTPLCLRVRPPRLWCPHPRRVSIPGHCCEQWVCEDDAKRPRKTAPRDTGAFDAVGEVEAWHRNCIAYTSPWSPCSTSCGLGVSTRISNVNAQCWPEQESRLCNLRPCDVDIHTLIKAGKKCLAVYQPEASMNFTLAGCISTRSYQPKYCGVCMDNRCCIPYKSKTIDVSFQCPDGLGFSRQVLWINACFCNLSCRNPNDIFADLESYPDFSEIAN
The protocol:
as §1, §2

For a further test, the target named is T4, huWISP-2 (human, UniProt O76076 24-250, limits assumed).
T4 construct: also called human WISP-2 (CCN5)
T4 sequence (looked up): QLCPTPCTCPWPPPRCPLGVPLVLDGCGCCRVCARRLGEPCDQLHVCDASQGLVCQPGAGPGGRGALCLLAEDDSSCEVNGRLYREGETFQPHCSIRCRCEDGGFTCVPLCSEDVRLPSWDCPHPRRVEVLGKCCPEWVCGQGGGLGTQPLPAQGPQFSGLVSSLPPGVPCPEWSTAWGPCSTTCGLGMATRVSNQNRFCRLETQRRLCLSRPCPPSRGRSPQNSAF
The protocol:
as §1, §2

The target in the next test is T5, huWISP-3 (human, UniProt O95389 24-354, limits assumed).
T5 construct: also called human WISP-3 (CCN6)
T5 sequence (looked up): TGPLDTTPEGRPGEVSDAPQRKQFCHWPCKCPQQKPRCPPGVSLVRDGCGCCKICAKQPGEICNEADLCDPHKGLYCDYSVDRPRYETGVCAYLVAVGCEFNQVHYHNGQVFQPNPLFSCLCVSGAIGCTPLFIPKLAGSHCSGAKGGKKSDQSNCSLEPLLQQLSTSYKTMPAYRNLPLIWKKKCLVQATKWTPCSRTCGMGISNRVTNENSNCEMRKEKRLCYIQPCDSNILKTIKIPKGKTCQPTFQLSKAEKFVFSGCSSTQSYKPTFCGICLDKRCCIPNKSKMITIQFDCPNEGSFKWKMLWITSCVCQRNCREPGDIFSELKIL
The protocol:
as §1, §2

B1: lipocalin mutein of SEQ ID NO: 29 (designed binder)
chain: QDSTSDLIPAPPLSKVPLQQNFQDNQFHGKWYVVGWAGNIKLREDKDPFKMSATIYELKEDKSYNVTEVVFEQKKCHYIIKTFVPGSQPGEFTLGDIKSPPGETSSLVRVVSTNYNQHAMVFFKKVFQNREFFWITLYGRTKELTSELKENFIRFSKSLGLPENHIVFPVPIDQCIDGSAWSHPQFEK
notes: Parent hNGAL mutein; also called hNGAL mutein
As for B1, the binding result in the test with huCYR61, with huNOV, with huWISP-1, in the test with huWISP-2 and with huWISP-3 was “no binding (tested: dilutions starting at 1000 nM)” in each case.

B2: lipocalin mutein of SEQ ID NO: 7 (designed binder)
chain: QDSTSDLIPAPPLSKVPLQQNFQDNQFHGKWYVVGLAGNYGLRTDKRPSKMFATIYELKEDKSYDVTSVRFEQERCHYTIRTFVPGSQPGEFTTGSIKSRPGQTSSLVRVVSTNYNQHAMVFFKSVIQNREYFAITLYGRTKELTSELKENFIRFSKSLGLPENHIVFPVPIDQCIDGSAWSHPQFEK
notes: as for B1
As for B2, the binding result with huCYR61, in the test with huNOV, with huWISP-1, with huWISP-2 and with huWISP-3 was “no binding (tested: dilutions starting at 1000 nM)” throughout.

B3: lipocalin mutein of SEQ ID NO: 25 (designed binder)
chain: QDSTSDLIPAPPLSKVPLQQNFQDNQFHGKWYVVGMAGNFRLREDKDPSKMGATIYELKEDKSYNVTQVQFDDKKCLYVIETFVPGSQPGEFTLGAIKSFPGFTSQLVRVVSTNYNQHAMVFFKKVYQNREVFWITLYGRTKELTSELKENFIRFSKSLGLPENHIVFPVPIDQCIDGSAWSHPQFEK
notes: as for B1
In the case of B3, the binding result with huCYR61, in the test with huNOV, with huWISP-1, with huWISP-2 and with huWISP-3 was “no binding (tested: dilutions starting at 1000 nM)” throughout.

B4: lipocalin mutein of SEQ ID NO: 15 (designed binder)
chain: QDSTSDLIPAPPLSKVPLQQNFQDNQFQGKWYVVGLAGNAILREDKQPAKMFATIYELKEDKSYDVTSVRFEAKSCKYTIKTFVPGSQPGEFTAGYIKSAPGQTSTLVRVVSTNYNQHAMVFFKHVTQNREIFVITLYGRTKELTSELKENFIRFSKSLGLPENHIVFPVPIDQCIDG
notes: also called hNGAL mutein; not shown: C-terminal His-tag
As for B4, the binding result in the test with huCYR61, in the test with huNOV, with huWISP-1, with huWISP-2 and with huWISP-3 was “no binding (tested: dilutions starting at 1000 nM)” each time.

B5: lipocalin mutein of SEQ ID NO: 3 (designed binder)
chain: QDSTSDLIPAPPLSKVPLQQNFQDNQFHGKWYVVGRAGNNRLREDKDPPKMWATIYELKEDKSYNVTHVHFMTKKCRYIIDTFVPGSQPGEFTLGAIKSGPGMTSPLVRIVSTNYNQHAMVFFKWVNQNREWFTITLYGRTKELTSELKENFIRFSKSLGLPENHIVFPVPIDQCIDGSAWSHPQFEK
notes: as for B1
Take B5: the binding result in the test with huCYR61, in the test with huNOV, with huWISP-1, in the test with huWISP-2 and with huWISP-3 was “no binding (tested: dilutions starting at 1000 nM)” each time.

B6: lipocalin mutein of SEQ ID NO: 9 (designed binder)
chain: QDSTSDLIPAPPLSKVPLQQNFQDNQFHGKWYVVGLAGNKILRIDKQPAKMFATIYELKEDKSYDVTSVRFEARSCSYTIKTFVPGSQPGEFTAGNIKSAPGQTSTLVRVVSTNYNQHAMVFFKHVSQNRETFVITLYGRTKELTSELKENFIRFSKSLGLPENHIVFPVPIDQCIDGSAWSHPQFEK
notes: as for B1
In the case of B6, the binding result in the test with huCYR61, with huNOV, with huWISP-1, in the test with huWISP-2 and with huWISP-3 was “no binding (tested: dilutions starting at 1000 nM)” each time.

The values above are taken from patent US20240228562A1 (Pieris, published 2024).
